The target of assay [1] is T1, His-tagged I-BAR domain of IRSp53, wild type (human, UniProt Q9UQB8-4 1-250).
T1 sequence: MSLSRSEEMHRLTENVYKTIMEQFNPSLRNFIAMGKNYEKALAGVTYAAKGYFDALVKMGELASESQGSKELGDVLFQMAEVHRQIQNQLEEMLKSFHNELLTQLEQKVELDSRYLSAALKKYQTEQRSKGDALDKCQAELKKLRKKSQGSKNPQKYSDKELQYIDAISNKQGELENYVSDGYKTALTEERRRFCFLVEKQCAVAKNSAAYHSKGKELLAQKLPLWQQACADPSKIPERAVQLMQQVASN
Briefly: ITC.

Assay [2] has as its target T1, His-tagged I-BAR domain of IRSp53, wild …. The experiment in a line: ITC. The source holds these as a separate data set. A general note: In ITC the heat of successive injections is recorded.

Where two headings read alike, the source gives them in different places. Where no end group is shown, it is not given here.

A word on the Kd: it is the equilibrium constant for the complex coming apart. The low end stands for tighter binding, the high end for weaker binding.

The molecule GTVQNPYADVKT-NH2 [EHEC Tir-derived dodecapeptide GTVQNPYADVKT (residues 452-463)] came in with a Kd in assay [1] of 59 ± 10 µM.
Regarding SEVVNPYAEVGG-NH2 [EPEC Tir-derived 12-mer peptide SEVVNPYAEVGG (residues 448-459)], binding in assay [2] was characterised by a dissociation constant (Kd) of 37 ± 14 µM.

The values above are taken from publication PMC4063679 (Structure (London, England : 1993), 2011).
